B1: ZNF449 (parent)
chain: TLHQRTHTEERPFKCNYCGKSFRQ

Variants of: B1
Experiment: protein stability index of a GFP-peptide fusion (GPS, HEK-293T) (PSI 1-6); higher = more stable
Conditions: c terminus: a fixed tail appended
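Further: lentivirally expressed fusions sorted by FACS into six bins by GFP to DsRed ratio, PSI derived from sequencing read proportions per bin multiplied by bin number.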

Compared with TLHSRTHTEERPFKCNYCGKSFRQ [Q4S], TLHFRTHTEERPFKCNYCGKSFRQ [Q4F] is higher in protein stability index: 2.12 for the first, 2.42 for the second.

Going from TLHLRTHTEERPFKCNYCGKSFRQ [Q4L] to TLHERTHTEERPFKCNYCGKSFRQ [Q4E], the protein stability index rises from 1.9 to 2.85.

Going from TLHRRTHTEERPFKCNYCGKSFRQ [Q4R] to TLHNRTHTEERPFKCNYCGKSFRQ [Q4N], the protein stability index falls from 3.24 to 2.75.

Going from TLHMRTHTEERPFKCNYCGKSFRQ [Q4M] to TLHDRTHTEERPFKCNYCGKSFRQ [Q4D], the protein stability index rises from 2.08 to 2.41.

Going from TLHIRTHTEERPFKCNYCGKSFRQ [Q4I] to TLHCRTHTEERPFKCNYCGKSFRQ [Q4C], the protein stability index rises from 1.71 to 3.33.

Going from TLHVRTHTEERPFKCNYCGKSFRQ [Q4V] to TLHTRTHTEERPFKCNYCGKSFRQ [Q4T], the protein stability index rises from 2.38 to 2.67.

Going from TLHHRTHTEERPFKCNYCGKSFRQ [Q4H] to TLHKRTHTEERPFKCNYCGKSFRQ [Q4K], the protein stability index rises from 1.73 to 2.94.

First: TLHGRTHTEERPFKCNYCGKSFRQ [Q4G]
Second: TLHYRTHTEERPFKCNYCGKSFRQ [Q4Y]
The protein stability index of the first is higher: 2.12 for the first, 2.03 for the second.

Compared with TLHARTHTEERPFKCNYCGKSFRQ [Q4A], TLHPRTHTEERPFKCNYCGKSFRQ [Q4P] is higher in protein stability index: 2.08 for the first, 2.92 for the second.

Compared with TLHQRTHTEHRPFKCNYCGKSFRQ [E10H], TLHQRTHTENRPFKCNYCGKSFRQ [E10N] is higher in protein stability index: 1.78 for the first, 2.48 for the second.

Compared with TLHQRTHTEIRPFKCNYCGKSFRQ [E10I], TLHQRTHTEPRPFKCNYCGKSFRQ [E10P] is lower in protein stability index: 3.39 for the first, 1.91 for the second.

Compared with TLHQRTHTEYRPFKCNYCGKSFRQ [E10Y], TLHQRTHTEFRPFKCNYCGKSFRQ [E10F] is lower in protein stability index: 2.55 for the first, 1.48 for the second.

Going from TLHQRTHTERRPFKCNYCGKSFRQ [E10R] to TLHQRTHTETRPFKCNYCGKSFRQ [E10T], the protein stability index rises from 1.81 to 2.25.

Compared with TLHQRTHTEMRPFKCNYCGKSFRQ [E10M], TLHQRTHTEWRPFKCNYCGKSFRQ [E10W] is lower in protein stability index: 2.73 for the first, 2.46 for the second.

Compared with TLHQRTHTEQRPFKCNYCGKSFRQ [E10Q], TLHQRTHTELRPFKCNYCGKSFRQ [E10L] is lower in protein stability index: 2.56 for the first, 1.55 for the second.

Compared with TLHQRTHTESRPFKCNYCGKSFRQ [E10S], TLHQRTHTEARPFKCNYCGKSFRQ [E10A] is lower in protein stability index: 2.1 for the first, 1.95 for the second.

First: TLHQRTHTEKRPFKCNYCGKSFRQ [E10K]
Second: TLHQRTHTEVRPFKCNYCGKSFRQ [E10V]
The protein stability index of the first is lower: 2.03 for the first, 3.31 for the second.

Compared with TLHQRTHTEGRPFKCNYCGKSFRQ [E10G], TLHQRTHTECRPFKCNYCGKSFRQ [E10C] is higher in protein stability index: 1.18 for the first, 1.74 for the second.

First: TLHQRTHTEEAPFKCNYCGKSFRQ [R11A]
Second: TLHQRTHTEEEPFKCNYCGKSFRQ [R11E]
The protein stability index of the first is lower: 2.39 for the first, 3.24 for the second.

Compared with TLHQRTHTEEDPFKCNYCGKSFRQ [R11D], TLHQRTHTEECPFKCNYCGKSFRQ [R11C] is lower in protein stability index: 3.19 for the first, 2.24 for the second.

Going from TLHQRPHTEERPFKCNYCGKSFRQ [T6P] to TLHQRQHTEERPFKCNYCGKSFRQ [T6Q], the protein stability index rises from 1.76 to 2.54.

Going from TLHQRIHTEERPFKCNYCGKSFRQ [T6I] to TLHQREHTEERPFKCNYCGKSFRQ [T6E], the protein stability index rises from 2.33 to 2.67.

First: TLHQRRHTEERPFKCNYCGKSFRQ [T6R]
Second: TLHQRHHTEERPFKCNYCGKSFRQ [T6H]
The protein stability index of the first is higher: 2.28 for the first, 1.55 for the second.

Compared with TLHQRNHTEERPFKCNYCGKSFRQ [T6N], TLHQRAHTEERPFKCNYCGKSFRQ [T6A] is higher in protein stability index: 2.08 for the first, 2.38 for the second.

Compared with TLHQRFHTEERPFKCNYCGKSFRQ [T6F], TLHQRYHTEERPFKCNYCGKSFRQ [T6Y] is higher in protein stability index: 1.76 for the first, 2.25 for the second.

Compared with TLHQRDHTEERPFKCNYCGKSFRQ [T6D], TLHQRCHTEERPFKCNYCGKSFRQ [T6C] is higher in protein stability index: 2.56 for the first, 3.06 for the second.

Going from TLHQRWHTEERPFKCNYCGKSFRQ [T6W] to TLHQRGHTEERPFKCNYCGKSFRQ [T6G], the protein stability index falls from 2 to 1.85.

Going from TLHQRMHTEERPFKCNYCGKSFRQ [T6M] to TLHQRSHTEERPFKCNYCGKSFRQ [T6S], the protein stability index rises from 2.03 to 3.12.

Compared with TLHQRTVTEERPFKCNYCGKSFRQ [H7V], TLHQRTGTEERPFKCNYCGKSFRQ [H7G] is lower in protein stability index: 4.2 for the first, 1.97 for the second.

Compared with TLHQRTTTEERPFKCNYCGKSFRQ [H7T], TLHQRTITEERPFKCNYCGKSFRQ [H7I] is lower in protein stability index: 2.8 for the first, 2.37 for the second.

Going from TLHQRTFTEERPFKCNYCGKSFRQ [H7F] to TLHQRTDTEERPFKCNYCGKSFRQ [H7D], the protein stability index rises from 2.13 to 2.65.

First: TLHQRTKTEERPFKCNYCGKSFRQ [H7K]
Second: TLHQRTMTEERPFKCNYCGKSFRQ [H7M]
The protein stability index of the first is lower: 2.27 for the first, 2.29 for the second.

Compared with TLHQRTPTEERPFKCNYCGKSFRQ [H7P], TLHQRTATEERPFKCNYCGKSFRQ [H7A] is lower in protein stability index: 2.43 for the first, 1.65 for the second.

Compared with TLHQRTLTEERPFKCNYCGKSFRQ [H7L], TLHQRTNTEERPFKCNYCGKSFRQ [H7N] is higher in protein stability index: 2 for the first, 2.12 for the second.

Compared with TLHQRTCTEERPFKCNYCGKSFRQ [H7C], TLHQRTWTEERPFKCNYCGKSFRQ [H7W] is higher in protein stability index: 2.66 for the first, 2.88 for the second.

Going from TLHQRTYTEERPFKCNYCGKSFRQ [H7Y] to TLHQRTETEERPFKCNYCGKSFRQ [H7E], the protein stability index rises from 1.94 to 2.5.

Going from TLHQRTQTEERPFKCNYCGKSFRQ [H7Q] to TLHQRTSTEERPFKCNYCGKSFRQ [H7S], the protein stability index falls from 2.88 to 2.4.

First: TLHQRTRTEERPFKCNYCGKSFRQ [H7R]
Second: HLHQRTHTEERPFKCNYCGKSFRQ [T1H]
The protein stability index of the first is lower: 2.48 for the first, 2.66 for the second.

Going from DLHQRTHTEERPFKCNYCGKSFRQ [T1D] to ILHQRTHTEERPFKCNYCGKSFRQ [T1I], the protein stability index falls from 2.46 to 2.21.

Compared with WLHQRTHTEERPFKCNYCGKSFRQ [T1W], FLHQRTHTEERPFKCNYCGKSFRQ [T1F] is higher in protein stability index: 2.01 for the first, 2.08 for the second.

Compared with NLHQRTHTEERPFKCNYCGKSFRQ [T1N], VLHQRTHTEERPFKCNYCGKSFRQ [T1V] is higher in protein stability index: 2.87 for the first, 3.17 for the second.

First: RLHQRTHTEERPFKCNYCGKSFRQ [T1R]
Second: LLHQRTHTEERPFKCNYCGKSFRQ [T1L]
The protein stability index of the first is lower: 2.02 for the first, 2.04 for the second.

First: CLHQRTHTEERPFKCNYCGKSFRQ [T1C]
Second: PLHQRTHTEERPFKCNYCGKSFRQ [T1P]
The protein stability index of the first is higher: 3.64 for the first, 2.56 for the second.

Going from QLHQRTHTEERPFKCNYCGKSFRQ [T1Q] to MLHQRTHTEERPFKCNYCGKSFRQ [T1M], the protein stability index rises from 2.19 to 2.39.

Going from YLHQRTHTEERPFKCNYCGKSFRQ [T1Y] to ELHQRTHTEERPFKCNYCGKSFRQ [T1E], the protein stability index rises from 2.01 to 2.64.

First: SLHQRTHTEERPFKCNYCGKSFRQ [T1S]
Second: KLHQRTHTEERPFKCNYCGKSFRQ [T1K]
The protein stability index of the first is higher: 3.59 for the first, 3.28 for the second.

Compared with GLHQRTHTEERPFKCNYCGKSFRQ [T1G], ALHQRTHTEERPFKCNYCGKSFRQ [T1A] is lower in protein stability index: 2.89 for the first, 2.12 for the second.
